Assay results as given in the domain aggregation screens of Martell et al. (2025).

experiment: soluble fraction after stress (log2 fold change); higher = more stays soluble; pooled small domains, quantitative proteomics; settings: stress: 75 degC
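Also: 20 min heating vs room temperature control held 20 min.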

Compared with “HMKQLNKRQDDILSLAEKEGYVSVENLAKTFTVSQQTIRRDINYLSDHEFLVRTHGGAFYSSG”, “HMKQNNYATKKELNFFVSRLISLLSYRDFFNPIEKKESMINNIEAIFTRSSLTSQELRTLHGIISNLVE” is lower in “soluble fraction (log2)” value: -0.252 for the first, -3.57 for the second.

Compared with “HMKQPNSYGSVHKLPGKRRKPWRVRKTSGWLLDEQSGTVKQQYITIGYYATKQEALIALADYNENP”, “HMKQQFTREQIIELMYKAYKKHKKKLNRVEIKKEKALPSYVTIGRYLNETSIKKIWEIVLSEKE” is higher in “soluble fraction (log2)” value: -1.55 for the first, -1.22 for the second.

Going from “HMKQVEVESVIGKSEEAANSILTKAGLKVNIGYKEDSSKPTDTVLSQDPAPGEKVDEGTTVTIVVNNYKKP” to “HMKRANGTGSVFKLNGKRRNPWVARVTQGFDDKGRQKYVNLGYYKTKREAENELLSYNSNPYDAN”, the “soluble fraction (log2)” value falls from 0.139 to -0.238.

“HMKREWKDDDPTVPAGWKVAWTTTSDNRAKIAFMSPDKKIFHSRKSALQHMLAAGTYAQSDIEKMTKGL” and “HMKRFSPPSIEEVDSYIREKGYTVDAERFVNFYESKGWYVGKNKMKNWRAAVATWQKEDNKRN” are within 0.2 log units of each other in “soluble fraction (log2)” value: -0.315 for the first, -0.226 for the second.

Going from “HMKRGDAYASEMIARLKEAHLIVMEGTLYPLLTRLKNDGLLSYRWEESTQGPPRKYYSITPVG” to “HMKRITGHLTEKNKKWYAVINLYDTDGKRKEKWQGLNLDANKGNKREAEHRLRQILDQYNTD”, the “soluble fraction (log2)” value falls from 0.151 to -0.258.

Going from “HMKRITKKQLSQQLEQFFSSQPGKKLTLKDIFRALHLDTHPLKMLAMDIMEEMAWDDFITKKGENAYQLNT” to “HMKRKAIDQSWQPDKEAIEILSKAGVNEEFIKEEIPEFILYWSEKGEESDTWNSKFIAQVRRQWAKTQH”, the “soluble fraction (log2)” value rises from -0.916 to -0.121.

Compared with “HMKRQATLQIGSKRFGMDDLYFKFTVPFEDSEKLGTATIEAYNLSPATRNSIKKGMPIILNAGYEGDI”, “HMKRTMVEAAMVAKLFNLTVRRIQQLTQDGVLTTELVDKKRRYDLLLTVQKYIAYLQEKVAK” is lower in “soluble fraction (log2)” value: -0.425 for the first, -3.41 for the second.

Going from “HMKRVVFFNGISWYHRTKELLDDMTTKYGKKGGFATPEEAEKSYWEYEERYKDRQRELQVAYLKN” to “HMKSDEGEIKKIVEEIISKNASVVEDYKKGKEVALQFLVGQGMKATKGSANPELLKKIILENI”, the “soluble fraction (log2)” value rises from -1.79 to 1.01.

Going from “HMKSDVVFDITDGTVKAMLKFNRSDVTILNNDGKNYYLFTANGEFTFKYQDGSGEYYEKTVYVDWLEDE” to “HMKSFIWKQYTVQITKKNVKNTNVRIKRDNPHVILMSIPYSATYKAGLLALETPHIRHWLDNYERKLKQ”, the “soluble fraction (log2)” value rises from -2.25 to -1.45.

First: HMKSIEVPNLINMTLRKAKIELIDNEFNLDTVIYEYNPNIREGRVSLQIPESGTILKSGSNISIHISKGIP
Second: HMKSIPKIKWNSTLENIKNFEYQDNFFESKEMYDLLVSFYKYGFVIIKNIPTNNNFIVKFANSIGS
The “soluble fraction (log2)” value of the first is lower: -1.6 for the first, 0.0519 for the second.

Compared with “HMKSISMANGNVQLRINGVLASSLEVAALSPEDIKRVEYHDNPGLRYGEGIDIVLDYITIKRT”, “HMKSISMSKLRHLLQLYVQGRSKKLISEQTGIARNTLKKYIKEFSEAGLSLEALLALSDKELEDLFVK” is lower in “soluble fraction (log2)” value: -0.754 for the first, -2.86 for the second.

Going from “HMKSLPQKLLAYLESQGLTRDEAGEFVKQGLKITSNDVDQIQLLLANTEVIDIKLQEFIAQK” to “HMKSLVDLEISIVKKDMNYFVLPKINGEPLLMERISASEYKDFQLGKLSKEDIFQKHYPDYSEENIKNGRG”, the “soluble fraction (log2)” value falls from 0.0281 to -0.671.

Going from “HMKSSISKNWNPSKDAIEILTRAGIDQEFLENLIPEFVIYWIERSDVLISYNSKFIEHARLKWAQHTAEIQ” to “HMKSTPMYATAIVNIRSKAGTDSEILGKLNPSEEISVISSENGWSKVSYNGKEAYISSNYLSNAKP”, the “soluble fraction (log2)” value falls from 0.192 to -0.0974.

Going from “HMKSVFQPIYEDLLSRIQDGRLLPGMPLPSENALAVQYGTSRPTIRRAIGLLVEKSLVIRQPGIGSIVAS” to “HMKTALQENVRAYRLERKWTQQALAEALEVSVGAVSKWESGVSRPELETLMRLAELFGVSTDALLGF”, the “soluble fraction (log2)” value falls from -1.32 to -2.33.

First: HMKTAWDELNEVIEAYRGQESALIEVLHKAQEIMGYLPRDVQEAIAEGLHVPLNKVYGVVSFYHHFSV
Second: HMKTERTVRVQDQHLHYTLEEKPIKNVNLRIRPDGSVYVSAPFGTSRTLIDDFVASKSKQILAIQQAQSAM
The “soluble fraction (log2)” value of the first is higher: 0.449 for the first, -0.277 for the second.

Going from “HMKTGIGIVEANGGLRLRSQASTSSDVLSTAHNGDNVVVIRQVGNWYLVNYNLKIGYMHSDYITFKE” to “HMKTGNIIAVSLVWKGKYYMIRMFFPSAARPSRADVQTEIEKVYPGSKLSSFSVSDYEPGQPLLQV”, the “soluble fraction (log2)” value rises from -5.04 to -3.05.

Going from “HMKTGTTGLIGEIGVVKKALTPEGKVFVHGELWRAVSKTASPEGTLVQVIKINNLVLEVEKV” to “HMKTILEKDQRLAKYISYLIKRKRLSPEQVIEHLKTDDHGYEKYPKSINTIYAAIDKGLIPSVTRQDM”, the “soluble fraction (log2)” value rises from -2.98 to -0.509.

Compared with “HMKTKMTPELTTVIEAQIQKEWSPEQISGWLKKTHPVSVSHQRIYQHIQADRQQGGTLHQHLRQAK”, “HMKTKTFSPGEIVKIQTRDKSWQGTILESHDPEIILLKLTTGYNIGIRENEIINAKVIEKSKKDVKDAE” is higher in “soluble fraction (log2)” value: 0.00699 for the first, 0.258 for the second.

Going from “HMKTKTIMSTGAREDLVKMINEYYYSKNYIITEDNRIYNTKTEKFMDDLSVKFYRGRWKVIRN” to “HMKTLDATQRLKLNGEGIIVFNFGKYVDQPVVEIFKKERGYFAWMMSKDFSQQVKNIITKIHNEEILGK”, the “soluble fraction (log2)” value falls from -0.852 to -3.01.

First: HMKTLKHYFASIAHEFGREEAELMLLSVFKTPFEQRLMLFMKDPALTEAQVQQLDNLVRQRKQGVPLPYIL
Second: HMKTLPADPTVKNFSYTVVDGEIYYRENSIMTQIELSDNAKGRVAGMVELRQIVNELIDQQLND
The “soluble fraction (log2)” value of the first is lower: -2.68 for the first, -0.849 for the second.

Compared with “HMKTMEQSYIGRKIILDENVEDSALIKFEGIYWTFKSVSGPLKKGTEVEIIGIEGNKILIKNK”, “HMKTPIEFGSVYNDPVRYVIGMSIKSAESINQAIYDMMKIFGDENNMNKFDSLPDEQAVLDMVNSF” is higher in “soluble fraction (log2)” value: -0.988 for the first, 0.0725 for the second.

Compared with “HMKTRIQDLRKELGVTQSELADAVDVTRQTIISLEGGRYKASLVLAHKLAQFFHVTIEELFIFD”, “HMKTRNISGNHEAVWQAVRSRTQAGHPTTRAVIMDDLKAQGLNTQKFSRWLKKLVDDGSVYMDGDTIIMGK” is higher in “soluble fraction (log2)” value: -2.32 for the first, -0.306 for the second.

Compared with “HMKTRTVVLKSAGGNKIAVIKIIKEITGLGLVEAKAVADNGGNIKENIPAEEAEAIKTQLTEAGAEVEL”, “HMKTRYPNVYQDEKGKFFYQIFIGTDTNGRKKLKKGRRDALGHPFSSAYQASKEAKRVQALYANVS” is lower in “soluble fraction (log2)” value: -0.664 for the first, -2.02 for the second.

Compared with “HMKTSTGSAMYLTLDLAEKYAGQAFTLVHKKADGTFEYLYATADVDGKVKFGPVYELSPFMLVKGQL”, “HMKTSVGSKMMVMANNLSIRKSANLLSEKLADLSKGDMVEYISSTNGWNKVRYNGYVGYVSSYYLKDTGEV” is lower in “soluble fraction (log2)” value: -1.66 for the first, -2.21 for the second.

First: HMKTTKDSVFEYIQKELMTNEEYKQGINTNVIAQHFGLQRSNISTILNELVKEDRLEKTNTRPVLYFLPQ
Second: HMKTTKRERARAKLIQLLENEDRPAKEIYAGLGDIGVGSRTVEKVKKELQVTTYRSGGSWYWSLPKP
The “soluble fraction (log2)” value of the first is higher: -0.208 for the first, -0.525 for the second.

Compared with “HMKTVKPSQIPYSEFLKLVETDKINDVSMVGRNIIGHLDDGSKFKTYTPPNDPTLIEKLSSHNIVINAAPE”, “HMKTVLDSLLRILDSKELDIVVLRHIVGLTLTEIAKEKDMKKGTVFWMYNRAVKKLRLESERMGL” is lower in “soluble fraction (log2)” value: 0.0923 for the first, -2.13 for the second.

“HMKTVPNVEGEKDGTAQSAIESAGLKVGKVTYQYDDNTSKGLVISQSVKGGEKVKPNTAIDLVVSNGPK” and “HMKTYSEAQLKIALESLIENGKKQGYLTFQEINEILPDGIINTQDLKVIISILKETGIVVAKEKPEINIDV” are within 0.2 log units of each other in “soluble fraction (log2)” value: -0.117 for the first, 0.0761 for the second.

Going from “HMKVEFTPAYLKKFKANKNAWKFYEAQTNTYKKQSAWYVISAKQEETRLRRLDLLIYDSENGIHIKPLRR” to “HMKVFTEDEMLEKIKEYLSTNSYINRRVMETQFGLRQNIALKWLKHFTEIGVLRKEGERNSPIYFLNN”, the “soluble fraction (log2)” value rises from -2.74 to -0.356.

Compared with “HMKVKIFNGMKLVTNSTGLTVDGKPAALDESNADAKTYSQGLYVFIVYQSGKIAVMQDGKFLGYA”, “HMKVLNVLESEIVRLFKQGQQKDNIRDNIYKTHGQHYNNKKSFNVVFGRKWNSLLEQGFLES” is higher in “soluble fraction (log2)” value: -3.34 for the first, -1.23 for the second.

Compared with “HMKVRDTQYIIEAAISKNVIRKSKNIYYYGTDIIGRSLEDAIASLNDKKNQDIKMTILQEIES”, “HMKVSKNKIVKGMGFHHVALKAVDFDASFKFYTEGLGMKFYTSWGEGNGKIAMLDLGDGGILELFA” is higher in “soluble fraction (log2)” value: -2.14 for the first, 0.0409 for the second.

Compared with “HMKVTGITDDILQRLKQQKGYLMLSDKSSPDEIYAAFGVSKKVFKQAIGTLFKQRQIIIEEQGIRLAN”, “HMKVTQDIIFKRNGEEIKSKVLEITPDLIIYIDYSRADNIAREINISEVNMIIYKNGTSEIFSRPEE” is lower in “soluble fraction (log2)” value: -1.3 for the first, -1.69 for the second.

Compared with “HMKVTTGIDGLIGEEGVALSDFSGKGKIMVHGEIWNAEFSGEVKKGEVLLVEKANGMTLITRKKN”, “HMKYKWLAGQLRRELLENGGKKGYKLPTELELARRYQLSRQTVRRALQLLEEEGLILRRQGSGAYATGKPP” is lower in “soluble fraction (log2)” value: at least 1.04 for the first, -0.729 for the second.

First: HMKYLREEDYLPIGSIIRLDDRNFRVDHVNFMFKSVSLQDMDLTNSGQPIFRSESLPHIRELYEQQQNELV
Second: HMKYYIYQGLGDSGELTKIAEVTDVKTYTATGLEANTKYRFAVSAYNGLRESSKSNIITVTT
The “soluble fraction (log2)” value of the first is lower: -0.877 for the first, 0.0116 for the second.

Going from “HMLADIGGRIADLRREVGLTQGELAEKADISVVHLSNIELGKKTPGLSTLIRIAEALDVATDWILQA” to “HMLAFDKDDSGAVAEIILVLGRYWMDFSHKKYPAAEGVALRHKGLSHIFTVLRPYLSTPASELIGERLRR”, the “soluble fraction (log2)” value rises from -1.38 to -0.0618.

Compared with “HMLAGVDTLADRELEVFQMLGRGKSTKEIAQVLNLGESTVETYRARIKEKLQLRSAAELYLRAGQWVRDHG”, “HMLAIKKGGIFAILGPNGSGKSTFSKVLAGHPAYTVVDGDIFFKGLSILDLEPEERSHLGIFLAFQ” is higher in “soluble fraction (log2)” value: -1.09 for the first, -0.286 for the second.
